Experimental findings from patent publication CN115594762A (KUNSHAN XINYUNDA BIOTECHNOLOGY CO LTD, dated 2023) are described below.

The target in the test is 人重链铁蛋白(HFn) (人铁蛋白H亚基, wild type, recombinant from E. coli) (human). As to the kind of experiment: ELISA, antigen coated at 1 μg/ml, purified antibody titrated, HRP goat anti-mouse IgG, OD450.
Sequence of 人重链铁蛋白(HFn) (人铁蛋白H亚基, wild type, recombinant from E. coli) (human) (chain, as listed by the source): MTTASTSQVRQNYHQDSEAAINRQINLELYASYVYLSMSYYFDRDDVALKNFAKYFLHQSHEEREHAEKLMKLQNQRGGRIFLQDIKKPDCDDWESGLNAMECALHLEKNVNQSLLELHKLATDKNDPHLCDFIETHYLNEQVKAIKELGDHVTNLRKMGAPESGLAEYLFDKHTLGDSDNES

B1: 单克隆抗体3A (抗人重链铁蛋白的抗体3A, secreted by hybridoma 3A7 1B6, CGMCC NO:21906) (antibody, IgG2b, V domains shown)
VH: EVQLQQPGAELVKPGTSVKLSCKASGYIFTSYWMHWVKQRPGQGLEWIGEINPSNARTNYNEKFKSKATLTVDKSSSTTYMQLSSLTSEDSAVYYCARSSYGKNAMDYWGQGTSVTVSS
VL: DIQMTQTPSSLSASLGDRVTISCRTSQDISNYLNWYQQKPDGTVKLLIYYTSRLHSGVPSRFSGSGSGTAYSLTISNLEQEDIATYLCQEGNTLPRTFGGGTKLEIKR
notes: also called 3A单抗; 3A抗体
With B1, the EC50 was 3.68 ng/mL.
